Measurements published in publication PMC8637566, “ERK signaling controls productive HIF‐1 binding to chromatin and cancer cell adaptation to hypoxia through HIF‐1α interaction with NPM1” (Molecular Oncology, 2021).

Key:
[1] = biological target: NPM1 (nucleophosmin, B23) (UniProt P06748); assay: anti-FLAG IP of transduced peptide, NPM1 blot; conditions: reference: TAT-ETD-FLAG WT; sites S641,S643
GST‐NPM1 B23.1 = biological target: T1, GST‐NPM1 B23.1 (UniProt P06748 1-294); assay: pull-down; GST-NPM1 forms immobilised on GSH-agarose as baits, bacterially expressed and purified HIF-1α(348–826)SE or TAT-ETD-SE-FLAG peptide as prey; immunoblot with anti-HIF-1α or anti-Flag; conditions: both partners purified
T1 construct: NPM1 isoform B23.1, the most abundant form, with the C-terminal aromatic stretch; also called GST‐B23.1; B23.1 form of recombinant NPM1; source: E. coli BL21 (RIL), purified (GSH‐agarose)
T1 sequence (P06748 whole entry, canonical isoform): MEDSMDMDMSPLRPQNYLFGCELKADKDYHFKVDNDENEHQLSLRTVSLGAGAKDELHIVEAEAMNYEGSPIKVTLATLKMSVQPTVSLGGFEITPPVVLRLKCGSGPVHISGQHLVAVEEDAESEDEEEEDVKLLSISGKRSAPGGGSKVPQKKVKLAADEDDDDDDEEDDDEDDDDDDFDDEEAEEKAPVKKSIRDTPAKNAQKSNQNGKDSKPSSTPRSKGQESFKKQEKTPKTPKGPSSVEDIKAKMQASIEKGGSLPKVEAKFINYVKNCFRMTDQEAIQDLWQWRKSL

Molecule | binding against the reference [1] | binding result (GST‐NPM1 B23.1)
HIF‐1α ETD, 616-658 (from UniProt Q16665) TAT-ETD-SA-FLAG | lost | –
TTTATTDELKTVTKDRMEDIKILIAEPSPTHIHKETTSATSSP (peptide, UniProt Q16665 616-658, looked up, HIF-1α ERK targeted domain (ETD), residues 616–658, Ser641 to Glu; source: E. coli, purified) [TAT‐ETD(SE)‐FLAG peptide] | – | binds
